Assay results taken from patent US20060057696A1, “Sugar chain synthases” (priority 2002, published 2006).

How the values were obtained:
[1] = target: T1, PA-mST8Sia VI (mouse ST8Sia VI) (Mus musculus, UniProt Q8K4T1); experiment: Sialyltransferase activity of PA-mST8Sia VI toward acceptor substrates; assay type: biochemical; conditions: for Relative rate (%) Mouse ST8SiaVI: incorporation with Fetuin taken as 100, substrate 0.5 mg/ml glycolipids, 1 mg/ml glycoproteins, monosaccharides and oligosaccharides
T1 construct: amino acids 26-398 in the case of mouse ST8Sia VI; signal peptide of mouse immunoglobulin IgM (N); made in house; host or cells: COS-7 cells, transient expression of pcDSA-mST8Sia VI; protein recovered from medium on IgG-Sepharose
T1 sequence (Q8K4T1 26-398): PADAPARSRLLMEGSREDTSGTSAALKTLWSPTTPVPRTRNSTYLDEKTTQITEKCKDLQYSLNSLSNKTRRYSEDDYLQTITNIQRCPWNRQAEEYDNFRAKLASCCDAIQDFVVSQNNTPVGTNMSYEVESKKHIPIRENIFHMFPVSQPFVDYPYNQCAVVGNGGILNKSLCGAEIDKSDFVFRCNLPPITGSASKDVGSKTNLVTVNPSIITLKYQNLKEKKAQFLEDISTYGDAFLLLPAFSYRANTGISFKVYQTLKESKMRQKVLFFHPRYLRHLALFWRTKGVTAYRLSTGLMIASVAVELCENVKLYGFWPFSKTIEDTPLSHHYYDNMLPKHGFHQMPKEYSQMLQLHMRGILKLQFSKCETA
Method: Using each expression vector and lipofectamine (Invitrogen), transient expression was carried out in COS-7 cells (Kojima, N. et al. (1995) FEBS Lett. 360, 1-4). The proteins of the present invention secreted from the cells into which each expression vector had been introduced were named as PA-mST8Sia VI (mouse) and PA-hST8Sia VI (human). PA-mST8Sia VI and PA-hST8Sia VI were adsorbed to IgG-Sepharose (Amersham Pharmacia Biotech), and were then recovered from medium. Sialyltransferase activity was measured as follows according to the method of Lee et al. (Lee, Y.-C. et al. (1999) J. Biol. Chem. 274, 11958-11967). A reaction solution (10 μl) containing 50 mM MES buffer (pH 6.0), 1 mM MgCl2, 1 mM CaCl2, 0.5% Triton CF-54, 100 μM CMP-[^14C]-NeuAc, a glycoconjugate (which was added at 0.5 mg/ml in the case of glycolipids, and at 1 mg/ml in the case of glycoproteins or oligosaccharides), and a PA-mST8Sia VI or PA-hST8Sia VI suspension, was incubated at 37° C. for 3 to 20 hours. Thereafter, in the case of glycolipids, the reaction product was purified with a C-18 column (Sep-Pak Vac 100 mg; Waters) and the purified product was used as a sample, and in the case of oligosaccharides or glycoproteins, the reaction product was directly used as a sample. Thus, the obtained samples were subjected to analysis. In the case of oligosaccharides or glycolipids, the sample was spotted on a silica gel 60 HPTLC plate (Merck), and was then developed with a developing solvent consisting of ethanol:pyridine:n-butanol:water:acetic acid=100:10:10:30:3 (for oligosaccharides), a developing solvent consisting of 1-propanol:ammonia water:water=6:1:2.5 (for oligosaccharides), or a developing solvent consisting of chloroform:methanol: 0.02% CaCl2=55:45:10 (for glycolipids). In the case of glycoproteins, analysis was carried out by SDS-polyacrylamide gel electrophoresis. The obtained radioactivities were visualized with a BAS2000 radio image analyzer (Fuji Film) and then quantified.

[2] = target: T2, human ST6Gal I (Homo sapiens, UniProt P15907); experiment: Sialyltransferase activity of human ST6Gal I toward acceptor substrates (comparison); assay type: biochemical; conditions: incorporation with Galβ1,4GlcNAc taken as 100; 0.5 mg/ml glycolipids, 1 mg/ml glycoproteins and oligosaccharides
T2 sequence (P15907 1-406): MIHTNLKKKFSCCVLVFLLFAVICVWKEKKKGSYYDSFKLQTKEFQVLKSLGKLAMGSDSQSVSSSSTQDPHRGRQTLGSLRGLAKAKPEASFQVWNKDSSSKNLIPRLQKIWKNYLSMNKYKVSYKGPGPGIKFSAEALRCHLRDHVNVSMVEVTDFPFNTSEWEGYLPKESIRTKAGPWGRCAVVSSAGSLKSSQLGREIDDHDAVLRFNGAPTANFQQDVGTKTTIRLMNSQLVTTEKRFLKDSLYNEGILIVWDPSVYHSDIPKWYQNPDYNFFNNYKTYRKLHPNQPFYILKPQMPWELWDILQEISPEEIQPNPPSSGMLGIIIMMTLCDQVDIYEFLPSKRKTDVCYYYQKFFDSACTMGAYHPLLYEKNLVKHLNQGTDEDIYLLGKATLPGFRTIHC
Method: Using each expression vector and lipofectamine (Invitrogen), transient expression was carried out in COS-7 cells (Kojima, N. et al. (1995) FEBS Lett. 360, 1-4). The proteins of the present invention secreted from the cells into which each expression vector had been introduced were named as PA-hST6Gal II (human) and PA-mST6Gal II (mouse). PA-hST6Gal II and PA-mST6Gal II were adsorbed to IgG-Sepharose (Amersham Pharmacia Biotech), and were then recovered from medium. Sialyltransferase activity was measured as follows according to the method of Lee et al. (Lee, Y.-C. et al. (1999) J Biol. Chem. 274, 11958-11967). A reaction mixture (10 μl) containing 50 mM MES buffer (pH 6.0), 1 mM MgCl2, 1 mM CaCl2, 0.5% Triton CF-54, 100 μM CMP-[^14C]-NeuAc, a substrate sugar chain (which was added at 0.5 mg/ml in the case of glycolipids, and at 1 mg/ml in the case of glycoproteins or oligosaccharides), and a PA-hST6Gal II or PA-mST6Gal II suspension, was incubated at 37° C. for 3 to 20 hours. Thereafter, in the case of glycolipids, the reaction product was purified with a C-18 column (Sep-Pak Vac 100 mg; Waters) and the purified product was used as a sample. In the case of oligosaccharides or glycoproteins, the reaction product was directly used as a sample. Thus, the obtained sample was subjected to analysis. In the case of oligosaccharides or glycolipids, the sample was spotted on a silica gel 60 HPTLC plate (Merck), and it was then developed with a developing solvent consisting of 1-propanol:ammonia water:water=6:1:2.5 (for oligosaccharides), or a developing solvent consisting of chloroform:methanol: 0.02% CaCl2=55:45:10 (for glycolipids). In the case of glycoproteins, analysis was carried out by SDS-polyacrylamide gel electrophoresis. The obtained radioactivities were visualized with a BAS2000 radio image analyzer (Fuji Film) and then quantified.
In contrast, there were no glycolipids, which could be substrates of both the enzymes, as far as the inventors have examined. The activity of human ST6Gal I on oligosaccharides was also examined for comparison. […] (FIG. 10).

## Asialo- α1-Acid glycoprotein: desialylated α1-acid glycoprotein prepared at 80° C. for 1 hour in 0.02 N HCl
[1]
  Relative rate (%) Mouse ST8SiaVI: 0%
[2]
  Relative rate (%) Human ST6Gal I: 93.0%

## Asialofetuin: asialo glycoprotein acceptor substrate purchased from Sigma
[1]
  Relative rate (%) Mouse ST8SiaVI: 0%
[2]
  Relative rate (%) Human ST6Gal I: 95.0%

## Fetuin: glycoprotein acceptor substrate containing both O-glycans and N-glycans, purchased from Sigma
[1]
  activity of PA-mST8Sia VI on the substrate (in words): showed activity
  Relative rate (%) Mouse ST8SiaVI: 100%
[2]
  Relative rate (%) Human ST6Gal I: 13.0%

## Galβ1,3GalNAcβ1,4(NeuAcα2,3)Galβ1,4Glcβ1-Cer [GM1a]
[1]
  Relative rate (%) Mouse ST8SiaVI: 0%
[2]
  Relative rate (%) Human ST6Gal I: 0%

## Galβ1,4Glcβ1-Cer [Lactosylceramide]
[1]
  Relative rate (%) Mouse ST8SiaVI: 0%
[2]
  Relative rate (%) Human ST6Gal I: 0%

## NeuAcα2,3Galβ1,4Glcβ1-Cer [GM3]
[1]
  Km: 500 µM
  Vmax value: 0.67 pmol/h/ml enzyme solution
  activity of PA-mST8Sia VI on the substrate (in words): showed activity
  Relative rate (%) Mouse ST8SiaVI: 13.0%
[2]
  Relative rate (%) Human ST6Gal I: 0%

## α1-Acid glycoprotein: glycoprotein acceptor substrate purchased from Sigma
[1]
  Relative rate (%) Mouse ST8SiaVI: 0%
[2]
  Relative rate (%) Human ST6Gal I: 37.1%

B1: Ovomucoid: glycoprotein acceptor substrate which contains only N-glycans (protein, UniProt P01005 25-210, looked up)
Ovomucoid: AEVDCSRFPNATDKEGKDVLVCNKDLRPICGTDGVTYTNDCLLCAYSIEFGTNISKEHDGECKETVPMNCSSYANTTSEDGKVMVLCNRAFNPVCGTDGVTYDNECLLCAHKVEQGASVDKRHDGGCRKELAAVSVDCSEYPKPDCTAEDRPLCGSDNKTYGNKCNFCNAVVESNGTLTLSHFGKC
[1]
  activity of PA-mST8Sia VI on the substrate (in words): showed activity
  Relative rate (%) Mouse ST8SiaVI: 6.2%
[2]
  Relative rate (%) Human ST6Gal I: 9.0%

B2: Asialoovomucoid: desialylated ovomucoid prepared at 80° C. for 1 hour in 0.02 N HCl (protein, UniProt P01005 25-210, looked up)
Ovomucoid: B1 Ovomucoid
modifications: desialylated
notes: desialylated ovomucoid prepared at 80° C. for 1 hour in 0.02 N HCl
[1]
  Relative rate (%) Mouse ST8SiaVI: 0%
[2]
  Relative rate (%) Human ST6Gal I: 12.7%
